From the supplement of paper PMC7877785
± gives the uncertainty stated by the source.

Assay: self-splicing fitness, log relative to wild type (ln ratio); higher = more splicing; Tetrahymena group I intron in knt gene, E. coli kanamycin selection, DiMSum; sequences stand for … in CUCUCU…GGAGGGAAAAGUUAUCAGGCAUGCACCUGGUAGCUAGUCUUUAAACCAAUAGAUUGCAUCGGUUUAAAAGGCAAGACCGUCAAAUUGCGGGAAAGGGGUCAACAGCCGUUCAGUACCAAGUCUCAGGGGAAACUUUGAGAUGGCCUUGCAAAGGGUAUGGUAAUAAGCUGACGGACAUGGUCCUAACCACGCAGCCAAGUCCUAAGUCAACAGAUCUUCUGUUGAUAUGGAUGCAGUUCACAGACUAAAUGUCGGUCGGGGAAGAUGUAUUCUUCUCAUAAGAUAUAGUCGGACCUCUCCUUAAUGGGAGCUAGCGGAUGAAGUGAUGCAACACUGGAGCCGCUGGGAACUAAUUUGUAUGCGAAAGUAUAUUGAUUAGUUUUGGAGUACUCGUGGUCG
Procedure, shortened: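 Six replicate transformations of E. coli BL21(DE3) with a pET-22b(+) library were grown overnight at 37°C or 30°C. The library randomised all eight P1ex-region intron nucleotides, the intron lying in the knt kanamycin-resistance gene, and plates were LB agar with or without 25 μg/mL kanamycin plus 100 μg/mL carbenicillin, 50 μM IPTG and 0.2% rhamnose. Pooled colonies were amplicon-sequenced on an Illumina HiSeq 2500, and fitness is the DiMSum error-weighted combination of wild-type-normalised replicate fold changes, kanamycin versus none.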

Row | Sequence | self-splicing fitness (ln) (30 °C) | self-splicing fitness (ln) (37 °C)
1 | GGGCAGCAAUAUUACGGCCA | 0.461 ± 0.14 | 0.258 ± 0.17
2 | GGGCAGCAAUAUUACGGUUG | -1.94 ± 0.12 | -1.11 ± 0.13
3 | GGGCAGCAAUAUUACGUAAU | -0.917 ± 0.063 | 0.209 ± 0.085
4 | GGGCAGCAAUAUUACGUACA | -0.35 ± 0.084 | -0.0196 ± 0.1
5 | GGGCAGCAAUAUUACGUACG | -0.697 ± 0.12 | -0.0767 ± 0.14
6 | GGGCAGCAAUAUUACGUAUC | -0.951 ± 0.068 | -0.0249 ± 0.1
7 | GGGCAGCAAUAUUACGUCCA | -1.17 ± 0.23 | -1.01 ± 0.28
8 | GGGCAGCAAUAUUACGUGAC | -0.997 ± 0.13 | -1.03 ± 0.21
9 | GGGCAGCAAUAUUACGUGAG | -0.483 ± 0.085 | -0.435 ± 0.1
10 | GGGCAGCAAUAUUACGUGUU | -1.64 ± 0.072 | -0.906 ± 0.08
11 | GGGGAGCAAUAUUACGAACA | -1.6 ± 0.35 | -0.419 ± 0.28
12 | GGGGAGCAAUAUUACGACAU | -2.17 ± 0.022 | -1.15 ± 0.037
13 | GGGGAGCAAUAUUACGACCA | -0.254 ± 0.14 | 0.709 ± 0.23
14 | GGGGAGCAAUAUUACGCAAG | -3.34 ± 0.26 | -1.28 ± 0.2
15 | GGGGAGCAAUAUUACGCAGA |  | -2.07 ± 0.47
16 | GGGGAGCAAUAUUACGCCAA |  | -0.647 ± 0.44
17 | GGGGAGCAAUAUUACGCCAU |  | -1.58 ± 0.32
18 | GGGGAGCAAUAUUACGCGAA | -2.75 ± 0.4 | 0.457 ± 0.31
19 | GGGGAGCAAUAUUACGCUAU | -3.31 ± 0.36 | -1.88 ± 0.38
20 | GGGGAGCAAUAUUACGCUUG | -2.43 ± 0.17 | -0.967 ± 0.18
21 | GGGGAGCAAUAUUACGGUAC |  | 0.506 ± 0.25
22 | GGGGAGCAAUAUUACGUCGA | 0.294 ± 0.28 | 

Row | Sequence | self-splicing fitness (ln) (30 °C) | self-splicing fitness (ln) (37 °C)
23 | GGGGAGCAAUAUUACGUGCU | -1.81 ± 0.16 | -2.14 ± 0.33
24 | GGGGAGCAAUAUUACGUGGC | -3.07 ± 0.48 | -1.12 ± 0.47
25 | GGGGAGCAAUAUUACGUGGG | -2.75 ± 0.32 | 
26 | GGGGAGCAAUAUUACGUUAA | -2.53 ± 0.4 | -1.95 ± 0.35
27 | GGGGAGCAAUAUUACGUUUU | -3.04 ± 0.18 | -2.86 ± 0.25
28 | GGGUAGCAAUAUUACGACAU | -0.113 ± 0.015 | 0.159 ± 0.034
29 | GGGUAGCAAUAUUACGACUA | -0.339 ± 0.1 | 0.878 ± 0.15
30 | GGGUAGCAAUAUUACGAUAC | -1.98 ± 0.22 | -0.628 ± 0.24
31 | GGGUAGCAAUAUUACGAUGG | -2.86 ± 0.24 | -2.65 ± 0.37
32 | GGGUAGCAAUAUUACGAUUA | -0.341 ± 0.13 | -0.00462 ± 0.1
33 | GGGUAGCAAUAUUACGCAUC | -2.34 ± 0.29 | -2.48 ± 0.24
34 | GGGUAGCAAUAUUACGCCGU | -0.463 ± 0.2 | 0.576 ± 0.23
35 | GGGUAGCAAUAUUACGCGUG | -0.787 ± 0.13 | 0.175 ± 0.12
36 | GGGUAGCAAUAUUACGCUUA | -0.435 ± 0.15 | -0.957 ± 0.13
37 | GGGUAGCAAUAUUACGGCUU | -0.41 ± 0.11 | 0.232 ± 0.12
38 | GGGUAGCAAUAUUACGUGUA | -0.214 ± 0.12 | -0.897 ± 0.14
39 | GGGUAGCAAUAUUACGUUAU | -3.17 ± 0.25 | -1.33 ± 0.15
40 | GGUAAGCAAUAUUACGAAUC | -0.515 ± 0.13 | -0.339 ± 0.16
41 | GGUAAGCAAUAUUACGAUCG | -0.894 ± 0.1 | 0.451 ± 0.17
42 | GGUAAGCAAUAUUACGAUUG | -3.48 ± 0.48 | -3.44 ± 0.39
43 | GGUAAGCAAUAUUACGCGGA | -0.857 ± 0.18 | -2.25 ± 0.2
44 | GGUAAGCAAUAUUACGGCAC | -0.762 ± 0.096 | -0.531 ± 0.15
